Test results: PMC9897460

Columns and labels:
[1] = biological target: 5FAM-NRIP1_1068 peptide; experiment: fluorescence polarisation
[2] = biological target: 5FAM-PGC1α_144 coactivator peptide; experiment: fluorescence polarisation

- Kd [1]: 8.24 µM
- Kd [2]: 2010 nM
Substance: PPARγ ligand binding domain (LBD), delipidated (domain or fragment)
